{
  "source": "paper PMC7587188",
  "target": "B-Glucosidase",
  "test": "ITC; 1 mM BSA in the syringe, 10 uL injections into 66 uM B-GLU in the cell; 25 °C; PBS pH 6; VP-ITC; fitted with AFFINImeter, independent sites approach (GoF = 50.81%)",
  "data": [
    {"substance": "Bovine Serum Albumin (from UniProt P02769 25-607) (natural protein)", "values": [
      {"measurement": "Ka", "value": 530000, "unit": "M⁻¹"},
      {"measurement": "Kd", "value": 1900, "unit": "nM"},
      {"measurement": "dH", "value": -0.26, "unit": "kcal/mol"},
      {"measurement": "stoichiometry N", "value": 1.23}
    ]}
  ]
}
